Kd data for one molecule are collected here from publication PMC4954732 (2016).

Usually Kd stands for the free concentration of one partner at which half of the binding sites on the other are occupied at equilibrium, for simple one-to-one binding.

The assay deals with A. fumigatus CCAAT binding complex (CBC) consisting of HapB(230-299), HapC(40-137) and HapE(47-164) (A. fumigatus). Put plainly: SPR. On the technique in general: In SPR one partner is held on a chip, and binding of the other changes the refractive index at the surface.

B1: HapX(24-158) (domain or fragment)
chain: SPSPGPGTPGSITSKEWVIPPRPKPGRKPATDTPPTKRKAQNRAAQRAFRERRAARVNELEEQIKKIEDEHEIHIAAFKEQITNLSREVEQCRSEMTWWRDRCHALEKEVSVERSAKEAIVKEFRSSLSDREAVR
B1: the Kd stood at 16.2 nM.
